This note sets out measurements from patent publication US20260125451A1 (JIANGSU HENGRUI PHARMACEUTICALS, published 2026).

Experiment [1] addresses recombinant human BAFF (R&D cat: 7537-BF-025/CF) (human, UniProt Q9Y275 134-285, limits assumed). The experiment in a line: cell-based or functional assay.
Experiment [2] concerns the target T1, type I interferon (IFN) receptor subunit 1 (IFNAR1) (human, UniProt P17181 28-557).
T1 sequence (looked up): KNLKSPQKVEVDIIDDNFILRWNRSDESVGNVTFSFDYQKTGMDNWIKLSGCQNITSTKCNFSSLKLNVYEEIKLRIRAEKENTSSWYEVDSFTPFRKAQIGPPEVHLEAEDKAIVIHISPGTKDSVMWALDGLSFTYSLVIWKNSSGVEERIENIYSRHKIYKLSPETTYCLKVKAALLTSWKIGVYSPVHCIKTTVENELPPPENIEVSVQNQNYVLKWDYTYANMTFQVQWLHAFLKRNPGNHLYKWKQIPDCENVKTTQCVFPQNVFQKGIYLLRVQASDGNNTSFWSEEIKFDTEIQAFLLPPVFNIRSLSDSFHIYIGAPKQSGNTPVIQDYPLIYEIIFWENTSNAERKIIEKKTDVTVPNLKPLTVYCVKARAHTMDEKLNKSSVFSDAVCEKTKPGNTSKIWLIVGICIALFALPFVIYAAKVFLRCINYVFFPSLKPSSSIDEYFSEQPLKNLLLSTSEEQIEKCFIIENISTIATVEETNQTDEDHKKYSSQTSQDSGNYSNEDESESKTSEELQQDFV
As to the kind of experiment: cell-based or functional assay.

The target in experiment [3] is T2, recombinant human ARPIL (R&D cat: 5860-AP-010/CF) (human, UniProt O75888 105-250, limits assumed).
T2 sequence (looked up): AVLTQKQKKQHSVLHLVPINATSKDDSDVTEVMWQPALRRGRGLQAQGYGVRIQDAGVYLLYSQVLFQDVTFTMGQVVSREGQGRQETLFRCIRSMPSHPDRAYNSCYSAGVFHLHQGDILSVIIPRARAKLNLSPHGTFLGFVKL
The experiment in a line: cell-based or functional assay.

For experiment [4], the target named is T1, type I interferon (IFN) receptor …. The experiment in a line: cell-based or functional assay. This is another data set of the same source.
Experiment [5] concerns the target T3, APRIL (Acro Biosystems, Cat: APL-H52D1) (UniProt O75888 115-250, limits assumed).
T3 construct: also called ARPIL; A proliferation-inducing ligand
T3 sequence (looked up): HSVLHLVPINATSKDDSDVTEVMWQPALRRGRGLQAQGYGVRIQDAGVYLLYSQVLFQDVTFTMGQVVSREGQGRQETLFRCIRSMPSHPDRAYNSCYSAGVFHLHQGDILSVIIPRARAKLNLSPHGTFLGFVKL
The experiment in a line: ELISA, APRIL coated, anti-human Fc-HRP, OD450. As to the method: The capabilities of fusion proteins B606401, B637302, B746201, and B805201 to bind to BAFF and APRIL were assessed by ELISA as follows:
(§1) BAFF (PeproTech, Cat: 310-13) or ARPIL (Acro Biosystems, Cat: APL-H52D1) was diluted to 1 μg/mL with PBS, and a 96-well plate was coated with the dilution overnight at 4° C. The plate was washed with PBST and blocked with Blocking Buffer (PBST containing 1% BSA) at 37° C. for 1 h. The plate was tapped. The test antibodies were diluted with Blocking Buffer. Incubation was performed at 37° C. for 1.5 h. The plate was washed with PBST. An HRP-mouse anti-human Fc antibody (GenScript, Cat: A01854-200) was diluted with Blocking Buffer. Incubation was performed at 37° C. for 40 min. The plate was washed with PBST. 100 μL of TMB substrate solution (Biopanda, Cat: TMB-S-003) was added, and color development was performed at 37° C. for 3 min. 100 μL of ELISA stop solution (Solarbio, Cat: C1058) was added. OD450 was measured.
The EC₅₀ value for the capability of B637302 to bind to APRIL decreased to 1/7 to ⅙ of that of telitacicept.
A general note: An ELISA detects its analyte on a solid surface through an enzyme-linked reagent.

The target of experiment [6] is T3, APRIL (Acro Biosystems, Cat: APL-H52D1). As to the kind of experiment: ELISA, APRIL coated, anti-human Fc-HRP, OD450. As to the method: The capabilities of B613301, B613302, and B613303, which are fusion proteins of anifrolumab and TACI-BCMA, to bind to BAFF and APRIL were assessed by ELISA as follows:
as §1, with “96-well plate (Costar, Cat: 3590) was coated” for “96-well plate was coated”
This is another data set of the same source.

Like-named read-outs stand apart in the source and are kept apart here.

Chain of recombinant human BAFF (R&D cat: 7537-BF-025/CF) (Q9Y275 134-285 limits assumed): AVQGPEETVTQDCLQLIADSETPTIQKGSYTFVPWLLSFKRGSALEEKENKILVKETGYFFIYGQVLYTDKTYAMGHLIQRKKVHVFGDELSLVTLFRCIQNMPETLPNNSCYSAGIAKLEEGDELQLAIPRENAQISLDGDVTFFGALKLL

B1: B637302 (other)
heavy: EVQLVQSGAEVKKPGESLKISCKGSGYIFTNYWIAWVRQMPGKGLESMGIIYPGDSDIRYSPSFQGQVTISADKSITTAYLQWSSLKASDTAMYYCARHDIEGFDYWGRGTLVTVSSASTKGPSVFPLAPSSKSTSGGTAALGCLVKDYFPEPVTVSWNSGALTSGVHTFPAVLQSSGLYSLSSVVTVPSSSLGTQTYICNVNHKPSNTKVDKRVEPKSCDKTHTCPPCPAPEFEGGPSVFLFPPKPKDTLMISRTPEVTCVVVDVSHEDPEVKFNWYVDGVEVHNAKTKPREEQYNSTYRVVSVLTVLHQDWLNGKEYKCKVSNKALPASIEKTISKAKGQPREPQVYTLPPSRDELTKNQVSLTCLVKGFYPSDIAVEWESNGQPENNYKTTPPVLDSDGSFFLYSKLTVDKSRWQQGNVFSCSVMHEALHNHYTQKSLSLSPGK
light: EIVLTQSPGTLSLSPGERATLSCRASQSVSSSFFAWYQQKPGQAPRLLIYGASSRATGIPDRLSGSGSGTDFTLTITRLEPEDFAVYYCQQYDSSAITFGQGTRLEIKRTVAAPSVFIFPPSDEQLKSGTASVVCLLNNFYPREAKVQWKVDNALQSGNSQESVTEQDSKDSTYSLSSTLTLSKADYEKHKVYACEVTHQGLSSPVTKSFNRGECGGGGSGGGGSMLQMAGQCSQNEYFDSLLHACIPCQLRCSSNTPPLTCQRYCSTSCREEQGEFYDHLLRDCISCASICGQHPKQCAAFCE
notes: Fusion protein of anifrolumab, TACI-19-16 and BCMA-ECD-2
As to B1, in experiment [1], the “Flow cytometry proliferating B cell proportion (%), mean, BAFF-induced, drug at 10 nM” value amounted to 23.8%; the “Flow cytometry proliferating B cell proportion (%), mean, BAFF-induced, drug at 100 nM” value is 22.2%; the “Flow cytometry proliferating B cell proportion (%), mean, BAFF-induced, drug at 1000 nM” value was 10.9%. In addition, the “IC50 (nM), inhibition of the activity of type I interferons (IFN-β, HEK-Blue IFN-α/β cells)” value in experiment [2] was 1.59 nM. Moreover, in experiment [3], the “Flow cytometry proliferating B cell proportion (%), mean, APRIL-induced, drug at 4.12 nM” value came to 50.6%; the “Flow cytometry proliferating B cell proportion (%), mean, APRIL-induced, drug at 12.35 nM” value amounted to 50.7%; the “Flow cytometry proliferating B cell proportion (%), mean, APRIL-induced, drug at 37.04 nM” value was determined as 53.6%; the “Flow cytometry proliferating B cell proportion (%), mean, APRIL-induced, drug at 111.11 nM” value came to 51.5%. Moreover, in experiment [3], the “Flow cytometry proliferating B cell proportion (%), mean, APRIL-induced, drug at 333.33 nM” value stood at 48% and the “Flow cytometry proliferating B cell proportion (%), mean, APRIL-induced, drug at 1000.00 nM” value worked out at 33.6%. In addition, the “IC50, inhibition of IFN-α-induced in vitro differentiation of B cells into plasma cells” value in experiment [4] was determined as 10.8 nM. For the same molecule, the Emax in experiment [5] was found to be 2.9 nM.

B2: B613303 (other)
heavy: EVQLVQSGAEVKKPGESLKISCKGSGYIFTNYWIAWVRQMPGKGLESMGIIYPGDSDIRYSPSFQGQVTISADKSITTAYLQWSSLKASDTAMYYCARHDIEGFDYWGRGTLVTVSSASTKGPSVFPLAPSSKSTSGGTAALGCLVKDYFPEPVTVSWNSGALTSGVHTFPAVLQSSGLYSLSSVVTVPSSSLGTQTYICNVNHKPSNTKVDKRVEPKSCDKTHTCPPCPAPEFEGGPSVFLFPPKPKDTLMISRTPEVTCVVVDVSHEDPEVKFNWYVDGVEVHNAKTKPREEQYNSTYRVVSVLTVLHQDWLNGKEYKCKVSNKALPASIEKTISKAKGQPREPQVYTLPPSRDELTKNQVSLTCLVKGFYPSDIAVEWESNGQPENNYKTTPPVLDSDGSFFLYSKLTVDKSRWQQGNVFSCSVMHEALHNHYTQKSLSLSPGK
light: EIVLTQSPGTLSLSPGERATLSCRASQSVSSSFFAWYQQKPGQAPRLLIYGASSRATGIPDRLSGSGSGTDFTLTITRLEPEDFAVYYCQQYDSSAITFGQGTRLEIKRTVAAPSVFIFPPSDEQLKSGTASVVCLLNNFYPREAKVQWKVDNALQSGNSQESVTEQDSKDSTYSLSSTLTLSKADYEKHKVYACEVTHQGLSSPVTKSFNRGECGGGGSGGGGSSRVDQEERFPQGLWTGVAMRSCPEEQYWDPLLGTCMSCKTICNHQSQRTCAAFCRSLSCRKEQGKFYDHLLRDCISCASICGQHPKQCAYFCENKLRSPVNLPPELMLQMAGQCSQNEYFDSLLHACIPCQLRCSSNTPPLTCQRYCNASVTNSVKGTNA
notes: Fusion protein of anifrolumab and TACI-BCMA
On to B2, for which the Emax in experiment [6] was 2.33 nM.

B3: B606401 (other)
heavy: EVQLVQSGAEVKKPGESLKISCKGSGYIFTNYWIAWVRQMPGKGLESMGIIYPGDSDIRYSPSFQGQVTISADKSITTAYLQWSSLKASDTAMYYCARHDIEGFDYWGRGTLVTVSSASTKGPSVFPLAPSSKSTSGGTAALGCLVKDYFPEPVTVSWNSGALTSGVHTFPAVLQSSGLYSLSSVVTVPSSSLGTQTYICNVNHKPSNTKVDKRVEPKSCDKTHTCPPCPAPEFEGGPSVFLFPPKPKDTLMISRTPEVTCVVVDVSHEDPEVKFNWYVDGVEVHNAKTKPREEQYNSTYRVVSVLTVLHQDWLNGKEYKCKVSNKALPASIEKTISKAKGQPREPQVYTLPPSRDELTKNQVSLTCLVKGFYPSDIAVEWESNGQPENNYKTTPPVLDSDGSFFLYSKLTVDKSRWQQGNVFSCSVMHEALHNHYTQKSLSLSPGK
light: EIVLTQSPGTLSLSPGERATLSCRASQSVSSSFFAWYQQKPGQAPRLLIYGASSRATGIPDRLSGSGSGTDFTLTITRLEPEDFAVYYCQQYDSSAITFGQGTRLEIKRTVAAPSVFIFPPSDEQLKSGTASVVCLLNNFYPREAKVQWKVDNALQSGNSQESVTEQDSKDSTYSLSSTLTLSKADYEKHKVYACEVTHQGLSSPVTKSFNRGECGGGGSGGGGSSTSCREEQGEFYDHLLRDCISCASICGQHPKQCAAFCE
notes: Anifrolumab with TACI-19-16 at the C-terminus of the light chain
With B3, in experiment [1], the “Flow cytometry proliferating B cell proportion (%), mean, BAFF-induced, drug at 10 nM” value turned out to be 28.1%; the “Flow cytometry proliferating B cell proportion (%), mean, BAFF-induced, drug at 100 nM” value worked out at 25.3%; the “Flow cytometry proliferating B cell proportion (%), mean, BAFF-induced, drug at 1000 nM” value turned out to be 17.9%. Besides, in experiment [2], the “IC50 (nM), inhibition of the activity of type I interferons (IFN-β, HEK-Blue IFN-α/β cells)” value turned out to be 1.94 nM. Besides, in experiment [3], the “Flow cytometry proliferating B cell proportion (%), mean, APRIL-induced, drug at 4.12 nM” value came out at 52%; the “Flow cytometry proliferating B cell proportion (%), mean, APRIL-induced, drug at 12.35 nM” value was determined as 52.9%; the “Flow cytometry proliferating B cell proportion (%), mean, APRIL-induced, drug at 37.04 nM” value was 53.6%; the “Flow cytometry proliferating B cell proportion (%), mean, APRIL-induced, drug at 111.11 nM” value worked out at 53.1%. Besides, in experiment [3], the “Flow cytometry proliferating B cell proportion (%), mean, APRIL-induced, drug at 333.33 nM” value was 50.6% and the “Flow cytometry proliferating B cell proportion (%), mean, APRIL-induced, drug at 1000.00 nM” value amounted to 40.3%. Besides, the “IC50, inhibition of IFN-α-induced in vitro differentiation of B cells into plasma cells” value in experiment [4] turned out to be 17.4 nM. In experiment [5], this molecule gave an Emax of 2.81 nM.
